Measured values reported in PMC6623548, “Targeting Mannitol Metabolism as an Alternative Antimicrobial Strategy Based on the Structure-Function Study of Mannitol-1-Phosphate Dehydrogenase in Staphylococcus aureus” (mBio, 2019).

Key:
[1] = molecular target: T1, mannitol-1-phosphate dehydrogenase (SaM1PDH) (Staphylococcus aureus, UniProt Q2FEX4); assay: F6P reductase activity, NADH absorbance, Lineweaver-Burk kinetics; format: biochemical
T1 construct: gene mtlD

[2] = system: O=C(CO)[C@@H](O)[C@H](O)[C@H](O)COP(=O)(O)O; assay: purified protein; conditions: NADH active site; phosphate moiety at Arg287 and Arg294 (docking, supported by mutants)
[3] = system: O=P(O)(O)OC[C@@H](O)[C@@H](O)[C@H](O)[C@H](O)CO; assay: purified protein; conditions: NAD+ active site; phosphate moiety at Arg287 and Arg294 (docking, supported by mutants)

Compound	Ki [1] [µM]	Km [2] [µM]	Km [3] [µM]
Cc1c(O)c(O)cc2c1CC=C1[C@@]2(C)CC[C@@]2(C)[C@@H]3C[C@](C)(C(=O)O)CC[C@]3(C)CC[C@]12C [DHCL, dihydrocelastrol]	4	–	–
mannitol-1-phosphate dehydrogenase (SaM1PDH) (Staphylococcus aureus subsp. aureus USA300)	–	88.6	188
